Results as given in patent publication US12364733B1, “Method for treating septic shock” (Inotrem, priority 2018, dated 2025).
Entries after “also recorded” stand apart in the source; their conditions may differ.

Columns and labels:
septic shock patients = assay: Phase IIa clinical trial with nangibotide in septic shock patients (NCT03158948): safety, treatment emergent adverse events; format: in vivo, human; conditions: for safety and tolerability: up to 3 mg/kg/h
Experimental: This was a European prospective, […], multinational study in 14 centers from 4 countries (France, Belgium, the Netherlands, and Spain). Patients were recruited from July 2017 to June 2018. The study was conducted in accordance with the principles set forth in the Declaration of Helsinki and subsequent amendments, the Guidelines of the International Conference on Harmonization on GCP, as well as the requirements of national drug and data protection laws and other applicable regulatory requirements.
This was a randomized, double-blind, two-stage, placebo-controlled study. As described in FIG. 7, the study was composed of 2 stages with a similar treatment regimen, in which 0.3, 1.0 or 3.0 mg/kg/h of nangibotide (corresponding to peptide LR12, having an amino acid sequence as set forth in SEQ ID NO: 9, also known as motrem) was tested versus placebo. All patients with a diagnosis of septic shock were considered for study participation. All potential study patients underwent standard care management procedures. Patients with evidence of septic shock according to the Sepsis-3 definition (Singer et al, JAMA 2016) were considered for inclusion (i.e., patients suffering from sepsis and having (i) persisting hypotension requiring vasopressors to maintain their mean arterial pressure ≥65 mm Hg and (ii) a serum lactate level >2 mmol/L (18 mg/dL) despite adequate volume resuscitation).
After screening for eligibility, patients were randomized to one of the treatment arms. Then, they received either a 5 mg/kg loading dose of nangibotide over 15 minutes followed by a continuous intravenous (i.v.) infusion of nangibotide or a matching placebo on top of standard of care. Treatment with study drug was initiated as early as possible, but no later than 24 hours after the onset of septic shock, defined by the start of vasopressor therapy. Patients were treated until 12 (±2) hours after the resolution of their septic shock (defined as vasopressor withdrawal) with a maximum treatment duration of 5 days (120 hours).
Stage 1 was performed to investigate ascending doses of nangibotide or placebo in a sequential design in cohorts of 4 patients (3:1 randomization). After completion of a cohort, safety and PK data were reviewed by an independent data safety monitoring board (DSMB) and the study could progress to the next cohort/stage. Stage 2 investigated 3 doses of nangibotide in a randomized, balanced, parallel-group design involving up to 3 doses of nangibotide and a placebo arm.
Adverse events (AEs) were coded using the MedDRA dictionary version 18.1. Treatment-emergent adverse events (TEAEs) were summarized and listed. Analysis was performed in 49 septic shock patients. The demographic and baseline characteristics were summarized in a descriptive fashion within each population: categorical variables were summarized by contingency tables (frequencies and percentages). sTREM-1 levels at day 1 were also described (mean, standard deviation, standard error, median, quartiles and range, minimum and maximum values). Mortality rates were reported by frequency and percentage. For continuous endpoints, i.e., the sequential organ failure assessment (SOFA), missing data were imputed using LOCF (Last Observation Carry-Forward). For time-to-event analyses, i.e., duration of invasive mechanical ventilation (IMV), duration of continuous renal replacement therapy (CRRT), survival, censored data techniques were utilized. In addition, a sensitivity analysis of time to event data (except survival) was performed using censoring at maximum limit for the corresponding observation period (i.e., either day 28 or day 90). […] The following comparisons were made: each nangibotide dose arm to placebo, all nangibotide doses combined versus placebo, and dose-response using an ordinal trend test. […]

[1] = test system: anti-nangibotide antibodies; assay: Immunogenicity: anti-nangibotide antibodies in serum by indirect ELISA; format: in vivo, human; conditions: baseline, day 8 and day 28
Experimental: Anti-nangibotide antibodies in serum were evaluated at baseline, day 8 and day 28, by an indirect ELISA method validated according to methods described by Shankar et al. (J Pharm Biomed Anal. 2008 Dec. 15; 48(5):1267-81) and EMA guidance on immunogenicity assessment of biotechnology-derived therapeutic proteins (EMEA/CHMP/BMWP/14327/2006 issued on April 2008). Screening samples determined as positive were further assessed using the confirmatory assay where the cut point was established to have 0.1% of false positive samples (Shankar et al., J Pharm Biomed Anal. 2008 Dec. 15; 48(5):1267-81). […] The sensitivity of the assay was established to be 0.3125 pg/mL.

## nangibotide (LQEEDAGEYGCM; TLT-1 peptide)
Septic shock patients; 0.3 mg/kg/h
  All TEAEs leading to treatment withdrawal, % of all TEAEs: (0.0%)
  All TEAEs leading to treatment withdrawal, number: 0
  All TEAEs related to study drug (by investigator), % of all TEAEs: (0.0%)
  All TEAEs related to study drug (by investigator), number: 0
  All TEAEs with intensity severe, % of all TEAEs: (21.4%)
  All TEAEs with intensity severe, number: 12
  All serious TEAEs (including death), % of all TEAEs: (8.9%)
  All serious TEAEs (including death), number: 5
Septic shock patients; 1.0 mg/kg/h
  All TEAEs leading to treatment withdrawal, % of all TEAEs: (0.0%)
  All TEAEs leading to treatment withdrawal, number: 0
  All TEAEs related to study drug (by investigator), % of all TEAEs: (7.1%)
  All TEAEs related to study drug (by investigator), number: 4
  All TEAEs with intensity severe, % of all TEAEs: (23.2%)
  All TEAEs with intensity severe, number: 13
  All serious TEAEs (including death), % of all TEAEs: (5.4%)
  All serious TEAEs (including death), number: 3
Septic shock patients; 3.0 mg/kg/h
  All TEAEs leading to treatment withdrawal, % of all TEAEs: (0.0%)
  All TEAEs leading to treatment withdrawal, number: 0
  All TEAEs related to study drug (by investigator), % of all TEAEs: (0.0%)
  All TEAEs related to study drug (by investigator), number: 0
  All TEAEs with intensity severe, % of all TEAEs: (13.1%)
  All TEAEs with intensity severe, number: 8
  All serious TEAEs (including death), % of all TEAEs: (8.2%)
  All serious TEAEs (including death), number: 5
Septic shock patients; highest dose
  adverse events related to nangibotide treatment at the highest dose: no adverse events related to nangibotide treatment were observed
Septic shock patients; human, in vivo
  AEs related to infections and cardiac disorders, nangibotide groups vs placebo: proportionally higher in the nangibotide groups
  incidence of atrial fibrillation and thrombocytopenia, nangibotide groups vs placebo: proportionally higher in the nangibotide groups
  number of SAEs/AEs and number of patients with SAEs/AEs, nangibotide groups vs placebo group: comparable
Septic shock patients; nangibotide-treated group, without obvious explanation
  suspected unexpected serious adverse reactions (SUSARs), number: Two
Septic shock patients; septic shock patients, 0.3-3.0 mg/kg/h
  adverse events leading to treatment withdrawal: No adverse events (AEs) led to treatment withdrawal
Septic shock patients; septic shock patients
  safety and tolerability: safe and well-tolerated
Septic shock patients; septic shock patients, listed as nangibotide
  safety and tolerability: safe and well tolerated; also recorded: well-tolerated at all doses tested
[1]
  anti-nangibotide antibodies in serum: No anti-nangibotide antibodies were found
